According to paper PMC6317261, “Functional dissection of the developmentally restricted BEN domain chromatin boundary factor Insensitive” (Epigenetics & Chromatin, 2019):

Experiments:
GST = test: cross-linking; controls GST and Thioredoxin; the cross-linker is not named in the legend
[1] = target: the molecule itself; test: cross-linking; EGS, increasing amounts, 10 min at room temperature in PBS with 1 mM beta-mercaptoethanol; protein adjusted to 10 uM; SDS-PAGE, silver staining
[2] = target: the molecule itself; test: cross-linking; glutaraldehyde, 10 min at room temperature in PBS with 1 mM beta-mercaptoethanol; protein adjusted to 10 uM; SDS-PAGE, silver staining
[3] = target: the molecule itself; test: SEC; Superdex 200 10/300 column; 500 uL of the eluted protein loaded; sizes estimated against Bio-Rad standards (1.35 to 670 kDa)

## GST (natural protein)
GST
  stoichiometry N: 2

B1: HT:N1-213 (domain or fragment, Drosophila, UniProt Q8SYK5 1-213, looked up)
chain: MENQYQRIVSATAREDSQARRSKPLFLNAWSQTSSVDFEVLRSISAPDPQVEVENRALRDKVRYLEAKLQQHKDLLSQIHATSARMQQASSLLAESRPPTPPAVQSHHILTPPSSEICAPAQNPQILDYKIISAPDDADAIEIRLAAESLNSLSTSADSDRLEICLGDENHQQSNHHNSQQQYRISNGIKRDGSSESADTPLQFIKRRKLQEI
notes: source: E. coli, purified (Ni-NTA Agarose); not shown: His6, N-terminal, kept; Thioredoxin, N-terminal, kept
[1]
  stoichiometry N: 4

B2: HT:N1-111 (domain or fragment, Drosophila, UniProt Q8SYK5 1-111, looked up)
chain: MENQYQRIVSATAREDSQARRSKPLFLNAWSQTSSVDFEVLRSISAPDPQVEVENRALRDKVRYLEAKLQQHKDLLSQIHATSARMQQASSLLAESRPPTPPAVQSHHILT
notes: Insensitive (Insv), Drosophila, residues 1-111: includes the predicted coiled-coil domain (about 51-104); source: E. coli, purified (Ni-NTA Agarose); not shown: His6, N-terminal, kept; Thioredoxin, N-terminal, kept
[2]
  stoichiometry N: 4

B3: His-Sumo C-BEN (HS:C-BEN) (domain or fragment, Drosophila, UniProt Q8SYK5 210-376, looked up)
chain: LQEIQLQEEIPRQNIKLPAKPQVKARNGSFTDLNKGQQQNMDNVMVSIGPNNTCVPASVFENINWSVCSLATRKLLVTIFDRETLATHSMTGKPSPAFKDQDKPLKRMLDPGKIQDIIFAVTHKCNASEKEVRNAITTKCADENKMMKIQNVKRRSSGIKHEKENII
notes: Insensitive (Insv), Drosophila; C domain plus BEN domain; 'lacks amino acids 1-209'; elsewhere the C domain is said to extend from aa 209 to aa 253; about 32 kDa with the tag; source: E. coli, purified (Ni-NTA Agarose); not shown: His6, N-terminal, kept; Sumo, N-terminal, kept
[2]
  stoichiometry N: 4
[3]
  stoichiometry N: 2
